Values belong to the binder of their own block, whether it stands above or below them.
Legend:
[1] = biological target: T1, FUS-mscarlet3, released from MBP-FUS-mscarlet3-His6 by TEV protease (UniProt P35637 1-526); assay: fluorescence polarisation
T1 sequence: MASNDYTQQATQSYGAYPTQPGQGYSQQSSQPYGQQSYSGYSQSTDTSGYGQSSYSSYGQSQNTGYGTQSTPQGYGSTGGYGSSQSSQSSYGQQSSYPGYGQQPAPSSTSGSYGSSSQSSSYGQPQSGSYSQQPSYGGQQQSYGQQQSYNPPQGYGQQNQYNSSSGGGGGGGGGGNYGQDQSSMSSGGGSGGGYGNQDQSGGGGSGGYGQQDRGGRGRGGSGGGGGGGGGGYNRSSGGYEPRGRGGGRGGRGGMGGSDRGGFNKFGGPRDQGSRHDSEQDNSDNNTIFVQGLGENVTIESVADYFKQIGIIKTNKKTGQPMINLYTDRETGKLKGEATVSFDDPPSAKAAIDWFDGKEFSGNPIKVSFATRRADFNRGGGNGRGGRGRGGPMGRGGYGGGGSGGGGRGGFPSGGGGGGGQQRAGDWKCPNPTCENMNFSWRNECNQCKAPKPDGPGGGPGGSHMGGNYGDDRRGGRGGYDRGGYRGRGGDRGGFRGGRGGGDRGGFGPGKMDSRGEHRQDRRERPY

[2] = biological target: the molecule itself; assay: microfluidic diffusional sizing
[3] = biological target: T2, HspB6-meGFP-His6 (human), O14558; assay: microfluidic diffusional sizing; conditions: remark: other sources report otherwise
T2 chain: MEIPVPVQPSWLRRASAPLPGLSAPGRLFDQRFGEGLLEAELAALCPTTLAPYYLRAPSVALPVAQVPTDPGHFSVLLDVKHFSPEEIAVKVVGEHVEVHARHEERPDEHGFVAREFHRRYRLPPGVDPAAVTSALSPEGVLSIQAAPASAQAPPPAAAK

binding result [1]: binds
B1: HspB4-meGFP-His6 (natural protein)
chain: MDVTIQHPWFKRTLGPFYPSRLFDQFFGEGLFEYDLLPFLSSTISPYYRQSLFRTVLDSGISEVRSDRDKFVIFLDVKHFSPEDLTVKVQDDFVEIHGKHNERQDDHGYISREFHRRYRLPSNVDQSALSCSLSADGMLTFCGPKIQTGLDATHAERAIPVSREEKPTSAPSS

B2: HspB5-meGFP-His6 (natural protein)
chain: MDIAIHHPWIRRPFFPFHSPSRLFDQFFGEHLLESDLFPTSTSLSPFYLRPPSFLRAPSWFDTGLSEMRLEKDRFSVNLDVKHFSPEELKVKVLGDVIEVHGKHEERQDEHGFISREFHRKYRIPADVDPLTITSSLSSDGVLTVNGPRKQVSGPERTIPITREEKPAVTAAPKK
binding result [2]: binds

stoichiometry N [3]: 2
B3: HspB6-meGFP-His6, O14558 1-160 (natural protein)
chain: MEIPVPVQPSWLRRASAPLPGLSAPGRLFDQRFGEGLLEAELAALCPTTLAPYYLRAPSVALPVAQVPTDPGHFSVLLDVKHFSPEEIAVKVVGEHVEVHARHEERPDEHGFVAREFHRRYRLPPGVDPAAVTSALSPEGVLSIQAAPASAQAPPPAAAK

— doi:10.1101/2024.01.23.576883 (bioRxiv, 2024)
